According to the supplement of paper PMC10567573:

B1: ATE1 (parent)
chain: YGSFHQQYWLDGKIIAVGVIDILP

Variants of: B1
Assay: protein stability index of a GFP-peptide fusion (GPS, HEK-293T) (PSI 1-6); higher = more stable
Conditions: c terminus: a fixed tail appended
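Note: lentivirally expressed fusions sorted by FACS into six bins by GFP to DsRed ratio, PSI derived from sequencing read proportions per bin multiplied by bin number.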

Protein stability index: each site, then its substitutions
L10: K 3.17, W 2.66, R 2.32, E 2.75, N 3.14, Q 3.96, P 3.12, V 3.17, Y 1.97, C 2.9, D 2.64, H 2.42, T 1.74, M 2.16, S 3.74, I 3.3
H5: D 4.47, Q 2.37, F 2.61, A 2.77, Y 3.26, P 2.32, M 1.77, R 2.13, I 1.49
Y8: D 2.78, H 2.57, P 2.93, I 3.92, F 3.62, K 2.35, W 2.58, Q 3.04, N 3.57
I14: Q 2.72, E 2.66, S 1.85, C 2.81, Y 1.49, P 2.95, T 2.75, K 2.41, M 4.33, A 3.24, G 2.26, W 2.62, N 4.29
G12: R 3.98, N 2.45, T 3.42, S 1.91, C 2.02, Q 2.45, A 2.54, K 2.14, I 3.89, D 2.68, V 2.04
F4: S 3.69, V 1.4, I 2.92, W 2.2, P 1.93, D 2.95, Y 4.54, N 3.28, E 3.75, M 2.76, Q 2.72, H 2.83
D11: K 3.39, H 2.8, F 3.33, P 2.24, G 1.06, V 2.38, I 2.1, N 3.47, T 3.15, W 2.72, A 4.43, S 2.47
W9: Q 1.69, L 3.27, P 3.09, M 1.98, K 3.09, H 3.06, V 3.47, E 2.26, Y 2.97, R 3.46, S 2.48, A 2.18, D 2.53, I 3.29, N 1.9, C 2.17
V17: A 3.66
Q7: A 4.84, H 2.4, C 3.33, S 4.74, D 2.72, R 2.99, W 4.02, P 2.94, I 2.67, G 3.84, T 3.51, L 2.01, M 1.76, F 2.02
Q6: G 2.41, T 3.63, R 3.54, I 3.08, K 3.09, F 2.94, N 3.97, Y 2.43, W 1.19, D 2.55, A 3.19, S 2.86, H 2.7
A16: T 2.7, P 2.38, R 3.32, G 2.13, C 1.6, S 1.87, F 2.21, Q 3.07, M 2, V 3.31, Y 2.13
K13: L 3.1, D 2.19, I 1.1, E 2.45, R 2, A 2.3, V 2.63, T 2.54, F 2.76, N 2.78, W 1.94, C 2.44, P 2.99, M 3.74
I15: H 3.57, L 2.75, K 1.79, D 2.53, R 1.91, V 4.05, T 3.23, C 1.53, N 2.59, A 2.57, G 3.26, S 2.5, Y 2.45, F 2.83, E 3.12, M 2.51
